From paper PMC3826667, “S100A9 protein is a novel ligand for the CD85j receptor and its interaction is implicated in the control of HIV-1 replication by NK cells” (Retrovirology, 2013)

Target: T1, recombinant CD85j-Fc fusion protein (human, UniProt Q8NHL6 24-461)
T1 construct: CD85j (LILRB1, ILT2, LIR-1), human; also called CD85j fusion protein; LILRB1; source: bought: R&D System
Test: ELISA; anti-GST mAb-coated wells, 4 ug/mL GST-tagged S100A8 or S100A9 captured, increasing amounts of CD85j-Fc, 2 h at 37°C; detected with HRP anti-human-Fc
Conditions: both partners purified

T1 sequence (Q8NHL6 24-461): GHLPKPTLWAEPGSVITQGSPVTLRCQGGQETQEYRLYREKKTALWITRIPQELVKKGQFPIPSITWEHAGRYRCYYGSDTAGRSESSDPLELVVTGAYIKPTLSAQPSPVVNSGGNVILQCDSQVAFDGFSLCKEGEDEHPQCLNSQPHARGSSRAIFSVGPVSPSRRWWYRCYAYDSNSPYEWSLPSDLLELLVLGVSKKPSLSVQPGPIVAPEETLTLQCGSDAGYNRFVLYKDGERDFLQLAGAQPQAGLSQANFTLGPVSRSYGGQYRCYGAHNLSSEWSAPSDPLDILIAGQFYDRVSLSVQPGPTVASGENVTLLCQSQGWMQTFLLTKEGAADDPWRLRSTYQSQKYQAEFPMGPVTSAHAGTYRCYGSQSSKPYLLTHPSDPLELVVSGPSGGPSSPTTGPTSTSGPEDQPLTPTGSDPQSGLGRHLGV

Row | binding result | Binder
1 | binds | full-length recombinant GST-tagged human S100A9 monomer (natural protein, UniProt P06702 1-114, looked up, S100A9, human, full-length recombinant, GST-tagged; source: bought: Tebu-bio) MTCKMSQLERNIETIINTFHQYSVKLGHPDTLNQGEFKELVRKDLQNFLKKENKNEKVIEHIMEDLDTNADKQLSFEEFIMLMARLTWASHEKMHEGDEGPGHHHKPGLGEGTP
2 | binds | recombinant GST-tagged human S100A8 monomer protein (natural protein, UniProt P05109 1-93, looked up, S100A8, human, recombinant, GST-tagged; source: bought: Tebu-bio) MLTELEKALNSIIDVYHKYSLIKGNFHAVYRDDLKKLLETECPQYIRKKGADVWFKELDINTDGAVNFQEFLILVIKMGVAAHKKSHEESHKE
